Source: publication PMC5780489

What was measured:
[1] = biological target: PABPC1ΔLt2 (residues 1-420, 471-636) (human) (UniProt P11940)
[2] = biological target: poly(A)-binding protein C1 (PABPC1), full length human (human) (UniProt P11940)

Sequence of poly(A)-binding protein C1 (PABPC1), full length human (P11940 whole entry): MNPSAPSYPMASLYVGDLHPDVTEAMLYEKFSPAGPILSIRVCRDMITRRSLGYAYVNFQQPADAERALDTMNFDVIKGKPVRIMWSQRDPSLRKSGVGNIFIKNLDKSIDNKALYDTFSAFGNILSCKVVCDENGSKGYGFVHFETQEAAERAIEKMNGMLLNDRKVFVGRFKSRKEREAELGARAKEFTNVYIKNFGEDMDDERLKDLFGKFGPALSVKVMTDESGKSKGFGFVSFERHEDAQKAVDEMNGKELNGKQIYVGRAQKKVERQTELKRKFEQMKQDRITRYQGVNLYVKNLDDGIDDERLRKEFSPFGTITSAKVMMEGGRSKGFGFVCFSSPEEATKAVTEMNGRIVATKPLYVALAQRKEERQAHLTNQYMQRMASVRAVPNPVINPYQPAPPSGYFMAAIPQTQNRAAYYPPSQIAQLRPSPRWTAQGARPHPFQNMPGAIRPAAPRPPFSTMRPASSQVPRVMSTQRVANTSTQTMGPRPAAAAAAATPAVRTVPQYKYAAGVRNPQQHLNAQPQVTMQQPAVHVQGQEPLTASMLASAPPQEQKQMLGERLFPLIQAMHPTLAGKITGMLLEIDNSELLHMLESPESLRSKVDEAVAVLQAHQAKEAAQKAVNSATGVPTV

translation of capped luciferase mRNA with poly(A) in PABPC1-depleted rabbit reticulocyte lysate after adding 10 nM purified protein; fold enhancement over depleted lysate [1] [fold] | translation of capped luciferase mRNA with poly(A) in PABPC1-depleted rabbit reticulocyte lysate after adding 10 nM purified protein; fold enhancement over depleted lysate [2] [fold] | Substance
1.7 | – | PABPC1ΔLt2 (residues 1-420, 471-636) (from UniProt P11940 1-636) (natural protein)
– | 2.5 | poly(A)-binding protein C1 (PABPC1), full length human (from UniProt P11940 1-636) (natural protein)
